# Source: IntAct's records for PubMed 24018422
# B1: Sentrin-specific protease 7 (Homo sapiens), Q9BQF6 (parent)
# chain: MDKRKLGRRPSSSEIITEGKRKKSSSDLSEIRKMLNAKPEDVHVQSPLSKFRSSERWTLPLQWERSLRNKVISLDHKNKKHIRGCPVTSKSSPERQLKVMLTNVLWTDLGRKFRKTLPRNDANLCDANKVQSDSLPSTSVDSLETCQKLEPLRQSLNLSERIPRVILTNVLGTELGRKYIRTPPVTEGSLSDTDNLQSEQLSSSSDGSLESYQNLNPHKSCYLSERGSQRSKTVDDNSAKQTAHNKEKRRKDDGISLLISDTQPEDLNSGSRGCDHLEQESRNKDVKYSDSKVELTLISRKTKRRLRNNLPDSQYCTSLDKSTEQTKKQEDDSTISTEFEKPSENYHQDPKLPEEITTKPTKSDFTKLSSLNSQELTLSNATKSASAGSTTETVENSNSIDIVGISSLVEKDENELNTIEKPILRGHNEGNQSLISAEPIVVSSDEEGPVEHKSSEILKLQSKQDRETTNENESTSESALLELPLITCESVQMSSELCPYNPVMENISSIMPSNEMDLQLDFIFTSVYIGKIKGASKGCVTITKKYIKIPFQVSLNEISLLVDTTHLKRFGLWKSKDDNHSKRSHAILFFWVSSDYLQEIQTQLEHSVLSQQSKSSEFIFLELHNPVSQREELKLKDIMTEISIISGELELSYPLSWVQAFPLFQNLSSKESSFIHYYCVSTCSFPAGVAVAEEMKLKSVSQPSNTDAAKPTYTFLQKQSSGCYSLSITSNPDEEWREVRHTGLVQKLIVYPPPPTKGGLGVTNEDLECLEEGEFLNDVIIDFYLKYLILEKASDELVERSHIFSSFFYKCLTRKENNLTEDNPNLSMAQRRHKRVRTWTRHINIFNKDYIFVPVNESSHWYLAVICFPWLEEAVYEDFPQTVSQQSQAQQSQNDNKTIDNDLRTTSTLSLSAEDSQSTESNMSVPKKMCKRPCILILDSLKAASVQNTVQNLREYLEVEWEVKLKTHRQFSKTNMVDLCPKVPKQDNSSDCGVYLLQYVESFFKDPIVNFELPIHLEKWFPRHVIKTKREDIRELILKLHLQQQKGSSS
# Variants of: B1
# Conditions: with tif1b_human TRIM28, Q13263
# Chain of tif1b_human TRIM28, Q13263 (Q13263 whole entry): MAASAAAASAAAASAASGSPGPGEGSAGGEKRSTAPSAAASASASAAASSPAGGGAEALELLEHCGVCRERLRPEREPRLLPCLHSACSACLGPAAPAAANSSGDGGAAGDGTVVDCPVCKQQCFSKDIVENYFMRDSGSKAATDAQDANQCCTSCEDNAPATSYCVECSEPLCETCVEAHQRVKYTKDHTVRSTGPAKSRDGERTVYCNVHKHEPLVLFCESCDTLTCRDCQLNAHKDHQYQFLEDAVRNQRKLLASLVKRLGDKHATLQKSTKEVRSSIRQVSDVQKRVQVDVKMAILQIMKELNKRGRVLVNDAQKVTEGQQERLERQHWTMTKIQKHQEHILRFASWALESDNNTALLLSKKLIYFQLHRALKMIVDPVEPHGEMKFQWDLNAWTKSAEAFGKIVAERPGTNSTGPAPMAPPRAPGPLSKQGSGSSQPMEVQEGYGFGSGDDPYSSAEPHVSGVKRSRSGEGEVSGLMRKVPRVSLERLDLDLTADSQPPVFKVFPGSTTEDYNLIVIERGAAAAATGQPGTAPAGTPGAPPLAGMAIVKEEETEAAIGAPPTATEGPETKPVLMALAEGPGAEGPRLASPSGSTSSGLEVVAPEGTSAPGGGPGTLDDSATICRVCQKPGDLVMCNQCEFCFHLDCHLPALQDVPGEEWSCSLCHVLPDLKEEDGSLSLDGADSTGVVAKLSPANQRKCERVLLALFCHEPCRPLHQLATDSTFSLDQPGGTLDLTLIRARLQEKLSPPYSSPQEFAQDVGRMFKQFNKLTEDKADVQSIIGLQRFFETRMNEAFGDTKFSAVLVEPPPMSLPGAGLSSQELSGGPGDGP
row,effect of a mutation on the interaction,Variant
1,increasing interaction,C992A

# Variants of: B1
# Conditions: with cbx5_human CBX5, P45973
# Chain of cbx5_human CBX5, P45973 (P45973 whole entry): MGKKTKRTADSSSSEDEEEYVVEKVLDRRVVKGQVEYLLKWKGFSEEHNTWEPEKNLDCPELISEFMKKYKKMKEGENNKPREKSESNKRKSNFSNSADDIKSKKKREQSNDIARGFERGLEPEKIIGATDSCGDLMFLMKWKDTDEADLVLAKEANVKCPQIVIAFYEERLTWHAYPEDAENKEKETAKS
row,effect of a mutation on the interaction,Variant
1,disrupting interaction,L149A;L152A;L156A;L158A;P163A;V165A

# Variants of: B1
# Conditions: with tif1b_human TRIM28, Q13263
# Remark: another data set of the same source
row,effect of a mutation on the interaction,Variant
1,disrupting interaction,L149A;L152A;L156A;L158A;P163A;V165A
